Assay: label from the status in PepcDB records

| Sequence | protein production |
| --- | --- |
| MMAGFAQTTITKINQFYERWMPRLPAEMTARNVLVFCVVCLLCIGSVMVASASMPYAEYMHENPFHYVVRHAISIATAAIVAYLVYKVPLNVWFKNTFSFWLITILLLLAVLVIGTEVNGSRRWIRLAGFTLQPTEVAKVMMAIFTADYVVRRAKEVRTHWKGLVRLSGVMAITVGLIIAEPDLGATVVIVLMMVGIFFLAGAPPTQFAIMLGAVVMGIGFLILFEPYRLARAMSFTNPWADPLGTGYQLSNALMAFGRGEWFGTGLGHSVQKLSYLPEAHTDFMLAVLGEEFGFVGISIVIGLSFIMLACCIKIGHRALKHNFLRAGYLAYGISIIFLLQIIVNAGMNMGLMPTKGLTLPFISYGGTSLMMCAAMISLILRIDASTQEINPDREESNF | failed |
| MTQTGSARFEGDSWDLASSVGLTATMVAAARAVAGRAPGALVNDQFAEPLVRAVGVDFFVRMASGELDPDELAEDEANGLRRFADAMAIRTHYFDNFFLDATRAGIRQAVILASGLDSRAYRLRWPAGTIVFEVDQPQVIDFKTTTLAGLGAAPTTDRRTVAVDLRDDWPTALQKAGFDNAQRTAWIAEGLLGYLSAEAQDRLLDQITAQSVPGSQFATEVLRDINRLNEEELRGRMRRLAERFRRHGLDLDMSGLVYFGDRTDARTYLADHGWRTASASTTDLLAEHGLPPIDGDDAPFGEVIYVSAELKQKHQDTR | not failed |
| MGACMKPIGSDGKPIPTPPSLLSFWEVVGVYGRLGLWLGALFIGAVGIFILMDQPPFVQMDWSGLVQQVAAVVALIAIVIPALQVFFALTNRASGSLRPGRYGRLFERRFARFTPQQIEDILQDARAILATMSDSPKRRAWARWVEWLEQRSNLPLAERSGLKIGVYHPRRSKLWIDGAGVALVGALGSWLIWDQRSWMGWAFLGVLGSLFTWGLLATLTERLELSDDSLSYYAFRRQQWSVPRQHVALREAGSSEYQIYDVRTGRLLGEVKGETFGADIVEALADLFPPWLGDEVG | failed |
| MTEIALIGNPNSGKTSLFNLLTGTSQRVGNWPGVTVERKSGNVKKLKEISVQDLPGIYSMSPYSPEEKVARDYLLSNHADSILNVVDATNLERNLYLTTQLIETGIPVTIALNMSDVLKNQGKSINSDKLAYQMGVPVVATSALKNTGVDKAVKKASQTTKGSVDSVQYPTYDAKFEAAIAQIIEVLGQTVPERSSRFYAIKLFERDRLVEEELDLSPFQKKEIKDIIQITEEVFTEDSESIVINQRYAFIERVSQMAQSQDNDFKMSASDKIDKIVTNRVLALPIFAVVMFLVYYLSIQTVGTMGTDWVNDILFGKYVPEFVTGVLEALKVQAWLQSLIIDGVVAGVGTVLGFLPQIFVLFICLGILEDIGYMSRIAFVMDRIFRRFGLSGKSFIPMLISTGCGVPGIMASRTIENERDRRITIMTTTFMPCSAKLSVIALIAGAFFPHNPWIAPSAYFMGMIAIILSGIALKKTSFLGGYTSPFIMELPSYHLPKVDAVLRYAFGKAMSFVKRAGTIIFSLTVLIWFMSSYNFTLHSVDTENSILASLGRLLAWIFTPLGFGNWKATVAALTGLAAKETVVATFGILYNNPDATETTHSLWVSLQGDYTALAAYSFLTFNLLCAPCFASIGAIKREMGNLKWTLVAIAYQTGLAYLVSLIIYQLGLVAFYGKPVTLWTGLALVLLLVMLYFIIRKPRQVKEKVITLDNLSLSHN | failed |
| MLGVILLYVGMVLMSNGLHRLEGIPDKSNVVMNIFTGGLGLILNIIVIAYGACTGQGAEWFYGSATGLLFAFTYLYSAINTIFDFDQRLYGWFSLFVAINTLPAGILCLTSGYGGNAWYGIIWFLWGVLWLTAFIEINLKKNLGKFVPYLAIFEGIVTAWIPGLLMLWGKW | failed |
| MEMMLGKTYREMVFWMAWIIIPFLMEIVPALGGFIILLRKRLSIKDKAFSGKLPQITIIVPVYNSEDTLKGCIESIYNSDYPSEFIDVMLVDNQSSDNSFKIFTRCQKEFDGLSLRYMNSKQGKSKALNMALFNSSGKYIIHIDSDGKLHKDAIKNMVTRFEGNPHVHCMTGVILTDKELIEKTKGSFFKLLRKCEFFEYAQAFLAGRNFESEVGSIYTLSGAFSAFRKSTILKTQLYNSETVSEDTQITFQVKKLLNQKVYLCENALFFVDPIEGFNKLYTQRQRWQRGELEVSHMFLRDGLKFGKGFVSDFMVRTLMYDHTFAFPRMIWYFALIFLVFMNYPIYLVVGSVAVIYLLYSLSAFLFYLNVISYLKKYKEVRSYYAKKFYLIFLMPMYNFGVFWIRFCGIINSIQLQGNWKTLNLTDEWRNFLGVFKRDFSVVFKVLNKLRQVVNNE | failed |
| MRLYVMLLSLSLIWGFSFVFIEHLLGIVGVWGTVVVRCFAGAIILLPILLMRRKLFYRPAPWKALMIVGIFNAGLPWGLIALSQTEIYSSTAAVLNALTPLFTGLIGFLLYSNALSRQQWGGIVLGFSGVVVLTGFQLQLLAPEHFVGVGTMILATICYGFASQYVKRHLHDTDVVLITTFSLLFGGLVGLIGMWITDSLHVVRVPLTIDWLSLISIIGLGCLGSGMAHLLYYDLMKKGGPEFATTVTYLIPMTAIIWGKLFLDELITKNIVIGMLMILMGVYFTSRKRNVCSKANEDSNKGELA | failed |
| MEKDDATASFSPSFSTYSGDRLVEIAERVCYKEKSDAEFEFSTAATSSSGDGGLVFPVFNKNLISGDVSPEKVIPLKDLFLRERNDQQPPQQTYSSSSDEEEEDDEFDSIPSEIYCPWTPARSTADMSPSGGCRKSKSTGSSSTSTWSTKRWRLRDFLKRSKSDGKQSLKFLNPTNRDDDDESSKSKKKVSVSVTVSAHEKFYLRNKAIKEEDKRKSYLPYKQDLVGLFSNIHRYGKTFPPF | failed |
| MDLGPEQIFGAPCRKCKEKCEGFELHFWKKTCRNCKCGQEEHGILLSTEEDRKVGRIIEDGKDTNQIAKLKADEIPMDKTSETVLNKPEPEKKDDFTKTVSYEWVPSVQNKALTRQYMQMLPKEKQPVSGSEGAQYRKKQLAKQLPAHDQDPNKCHELSRKEAKEMRQFVKKYKNEALGVGDVRLPSEMNVQHYKGHNPATDRNTPTAVDFKDTSMEPKKPQYSCYSCKHAVKEGNPAIFAERAGYDKLWHPACFICTICGEILVDMIYFWKNGKLYCGRHYCDSEKPRCAGCDELIFSNEYTQAENKNWHLIHFCCFHCHNVLAGKIYVMVGSKPVCKSCYMKIHAVVCQGCHNAIDPEEQRVIYQNFSWHASTACFLCSCCSKCLLGKKFIRVEGMIFCSIECKNMMS | failed |
| GLDTGALDQQQNNNGRESIRTVNVSVNNAVTKIVSNMSPAVVGVVNIQKSDIWGESGEAGSGSGVIYKKNDHSAYVVTNHHVIEGASQIEISLKDGSRVSADLVGSDQLMDLAVLRVKSDKIKAVADFGNSDKVKSGEPVIAIGNPLGLEFAGSVTQGVISGTERAIPVDSNGDGQPDWNAEVLQTDAAINPGNSGGALLNMDGKVIGINSMKIAESAVEGIGLSIPSKLVIPVIEDLERYGKVKRPFLGIEMKSLSDIASYHWDETLKLPKNVTNGAVVMGVDAFSPAGKAGLKELDVITEFDGYKVNDIVDLRKRLYQKKVGDRVKVKFYRGGKEKSVDIKLSSA | failed |
| IPGPGFTAGAQGSCSLRCGAQDGLCSCHPTCSGLGTCCEDFLDYCLEILPSSGSMMGGKDFVVQHLKWTDP | not failed |
| MDQQYDFGRPMGHERRSKEHDVTMRNRKTLDITGVKQVESFDNEEFLLETEMGFLSIRGRNLHMKNLNVEEGLVSIEGKIFDMVYLEQGQGEKSKGFFGKLFKLEHHHHHH | failed |
| MRIFIIKSSTAHTAFDYSIKDIPGTSGRLDLICRSLNAAFQLSHSFRKNVRVYTVLYGPPDPPKTIRFEGAKIKPKTLNPDEVSTAKLIGKILNAGKDIKEPTKEREVLPGIYISRMTFEDVVRKNIKYNLYLLEENGVDIEKVKFPQDNVGFILGDQNGFTEEELNFLEGLVPKITIGPKPYLTSHVIAFVNIYLDRIGIP | failed |
| MLEACESKLDIIKNFVPSWFAAVMGTGILAVDSLLYSSYLPILKDVAVGLFYFNVLLFFIFLVPWVLRWIMFKDNALADLKHPVLSAFYPTIAVSCLVLGADFINIGHNMFWGGVFWTLGAIGMFLFSLIVPFYMFKSESIKLDHVNPGWYIPPVGLIVIPIAGSLIMPHLTGVWHELTVLINYFGWGAGFFLYLALLAVVIYRFILHHPLPSAMAPTVWINLGPIGAGIVALINMVNNSPFITIKEPFYIFSFIFWGFGLWWSLMAIIMTLYYVKKLKLPYAMSWWAFIFPLGAYVASSHLVYKIFKFSIIDYIGFGLYWLLFFFWAITLIKTTNKVYTGEVFKGH | failed |
| MSGQPTAVDCLESSGSTVEDVQETPASREKSYGLPVRKGENSLESPAEQAAKDVEIEELTHSEAIAATGSTRKQCPYGGKAPDEPGKLADESEDRKGENTKAIASSPVLVAVDSDSSVELIESPVKFSSANESEKDPPKPDAVNEAAAKE | failed |
| MTYKITTSESKKEYLYMGSGDTRGESSLVAKPIEIILNKLPHAILAQQQFQKYITSPIYRYLSKLLLFREVAWPESTKDTQKGQVGIFSFQNNYADSATTFRILAHLDEHGYPLPNGAAEKNLPSLFEGFKATVSIIQQRLLLDNVDGATNSDKEKYVQLPDINTGFVNKTYSRIDLTHLLEDVETNVENLSINKTLEMDELTRLDSMINELESRKLKILERVKHIDSKSTNLENDVTLIKDRINFIEEYNLEADREQSLRKQMEEERSSEASSFTQNEEAISSLCDVESKDTRLKDFYKMPHEKSHDKNRQIISETYSRNTTAFRMTIPHGEHGNSITALDFDTPWGTLCSSSYQDRIVKVWDLNHGIQVGELPGHLATVNCMQIDKKNYNMLITGSKDATLKLWDLNLSREIYLDHSPLKEKTEEIVTPCIHNFELHKDEITALSFDSEALVSGSRDKKIFHWDLTTGKCIQQLDLIFTPTHSDIKMPARSLNNGACLLGTEAPMIGALQCYNSALATGTKDGIVRLWDLRVGKPVRLLEGHTDGITSLKFDSEKLVTGSMDNSVRIWDLRTSSILDVIAYDLPVSSLDFDGKLITVGANEGGVNVFNMERDEHWMTPEPPHSLDGDELSRRIAIVKYKDGFLINGHNDGDINVWTL | failed |
| MAYEQFAYVYDELMQDVPYPEWVAWVLEQVEPGKRIADIGCGTGTATLLLADHYEVTGVDLSEEMLEIAQEKAMETNRHVDFWVQDMRELELPEPVDAITILCDSLNYLQTEADVKQTFDSAARLLTDGGKLLFDVHSPYKMETLFNGKTYATHAEQSSYIWFADPGEEPLSVVHELTFFIEGEDGRYDRVDETHHQRTYPPEQYITWLREAGFRVCAVTGDFKSDAPTETAERIFFVAEKI | not failed |
| ELPKKRELCKFYITGFCARAENCPYMHGDFPCKLYHTTGNCINGDDCMFSHDPLTEETRELLDKMLADDAEAGAEDEKEVEELKK | not failed |
| MFVGREQELASLEEFYAKDGIGMTVIYGRRRIGKSTLITEFVKDKKTVFYTATKIGKARNLELFSKQVLDLFMPGIENISFNSIEAVFDFIDKNIANDKIVLVIDELPYWAEKDDSLLSILQKYIDTIWNDKNLKIILCGSALSFMENKVLSEKSPLFGRRDSQIKLESFNYLDSAKFVPNYSNEDKAICYGITGGVAKYLSMIDPKKNIDENIIRLFFRTDGYLYDETRNLLTQEFSDISLVNNIVEQIASGVNTLNTISGKINEKEPTVLYSLEKLISVGLIEKKKCITEEKNKKKTQYVLKDYMFKFWYEFIPKATSVIEMGQGALYYQKAVKPFLHSFMGSVFEEMCRYYTLNQGITGAYGCFVTSVGTWWGVENITDKNGYIRAQSADIDIVALSDIDKKAVIGECKFKNEKIDKGIYETLVRRGTLISNKYKISKYIFFSLSGYTDWFNSLSDEDVLLLTLDSLYR | failed |
| MRGDDMHIYELVSRDRTHPVRIYLLHSEYWTEDEFYNLLLEAFQRSSASDWHLQILEVSKYLVTAHGFVEAGGLQEIGFPGELSKTEVRRRINAFLGKDRSD | not failed |
| MGHHHHHHSHMFASCHCVPRGRRTMKMIHFRSSSVKSLSQEMRCTIRLLDDSEISCHIQRETKGQFLIDHICNYYSLLEKDYFGIRYVDPEKQRHWLEPNKSIFKQMKTHPPY | failed |
